Source: publication PMC2132594

Target: human erythrocyte spectrin (heterodimer of α and β chains) (human) (UniProt P02549)
Test: single-particle fluorescence imaging
Conditions: remark: other sources report otherwise

Substance: human erythrocyte spectrin (heterodimer of α and β chains), P02549 1-2419; P11277 1-2137
- percent of spots in the second peak (tetramers): 40%
- percent of the total spectrin in the second peak (tetramers): 59%
